Assay: soluble fraction after stress (log2 fold change); higher = more stays soluble; pooled small domains, quantitative proteomics
Details: stress: 75 degC
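Further: 20 min heating vs room temperature control held 20 min.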

Sequence	soluble fraction (log2)
HMLGKNEAKEYKVAYGDIGKMPALIMGLVPLPKPPVVDERLRTLYVTATPEQHREIEAIMNRI	0.236
HMLGKSNAERQLDLILGAIERSITGVSRSKLMQAYHLDSRGATAAFETLEQRGLITRSKSGRTELLIPTRV	-1.78
HMLGWEDVIQFEEVKGYGQHIWRDGNHLYYVTEEGGIAPQRVVYELPNELFALLESGERTQLEILSKLQ	-2.51
HMLHNEFINDRIQSAINNLSEHFKIVIILRDIQELSYEEISNIVEVPLGTIKSRINRARIQLQAELLDL	0.215
HMLILDTDGRYVIKRGDSLSEILEKIANGSNINLNLLKRAFVTANPKAFKRANPNWMYANAR	-0.249
HMLIPTISVTKEGQLRFENIPVSWEELGTRLRDVSDLDKIKIYADAESDALTISEIMKTAANVGIVQFVLV	-1.03
HMLIRKGVVSFFNDAKGYGFIKDLVTQESAFVHVNSLSETIKEHDKVTFEVEMGHKGANAVNVKLVK	-1.09
HMLIVLKPNVSQEEIDHIVDKIRSLSLEPHVSTGVQRTIITVIGDEDVIREQPLEALAGVESVKSILKP	-0.358
HMLKGTVKWFNESKGFGFIEQEEGKDVFVHYSAITGSGFKTLNEGDKVQFEIVDGPKGPAAANVSK	0.036
HMLKKGDQVYIISGKDKGKLGVVSQIVSEERILVDGINLAKKHVKPNPNKNETGGVVEKEMPIHASNVMI	0.243
HMLKLTDRQKVILSILMSDGEKTASWIASQLGVGLRSVQLDLSYLRNNGFIKKASKSTHSAWIVLKK	-4.1
HMLKPIHKDWSPNGDAKEILLKAGITEEFIQKELPEFIMYWSERNEESDIWNSKFIAHIRRRWGRFS	-1.64
HMLKPVVLLGARGLTDAVEKEVERALDEHGLIKIHVPSDDREERDEIYTTLADKLNAARIQAIGKMLVLW	-0.0344
HMLKSGSAVAQARDVILEKGVPVHINEILDALGKGDTREAKASLTSSLAAYVRRGEIFTRPAPNTFGLVEL	-0.592
HMLKTADAIASVLLTRIQAGEFSAGRLPAERALSEAFSTTRITLREALGKLEAQGMIYRELRRGWFIA	-1.85
HMLLFNPGEVLKGFVLQSGTNNRVLLQIGDSRVIADTQTPLKAGEQLVLRVEETGPKTILQILG	0.177
HMLLGDYIQKLRNQRGLSQQEFADKLGIGRSTLANYEQNKRSPDYETLIEISKFFNVSIDELLGV	-1.05
HMLLLASTPAEQTIIQLLAEGWRDGDQLQQRSHLSAADFSTALTMLEVNGSIKPLGANHWALTH	-1.26
HMLLPANLTKSQRNIAERVARGQSNLEIAADLNITERTVKAHLTSIYEKTKTGNRLNLALLINLG	-0.289
HMLLPGEELRVMIIQEGKEYGQGVGYLDDGTMVVVEDGQRALNRTENVVVTKVLQTTAGRMIFAK	-0.71
HMLLQENRKLHSKLEELQLISRAKAVLIEYLKLTEPQAHRYIEKQAMDLGLTRPQVALNILKTYE	-1.38
HMLLQTAVISTDIVNMRAEPTTNSSVIRKLTKGSDITINQEKDGWYKISDDQGNSGWIVTWAAKPT	-0.208
HMLMDVRVPDIIGVEINQAKEILTASSLLIGKITYVSLPEIEKDLVIETSVLAGRRVSAGTVIDITVNKE	-2.09
HMLMKPQKTRDVLRYLKSIGWVRLRGGQGSHEIWGLPDGSIRAVIPAGHREISAGVLMQLKRAGVDVPTQW	-1.25

Sequence	soluble fraction (log2)
HMLMLTPGQIAQTLDVSTATVRRWSARYARHLSPNTPGKKRSYTVDDLAVLTRVRDLSATGTPLAQIDQAL	-2.11
HMLMLTPGQVSNSLNVSTATVRRWSARFARHLSPQPPNRKRSYTPDDLATLARVRDLSASGTSLAQIDIAL	-2.59
HMLMRSPDFLIGWFQNLVAKRETFNDQVQAKNLIEAGKQHIQGEDFDRLLEVNRRLFSLLPQREQE	0.177
HMLNAPFGFRIEDDTLIPIPEEAKVVRQIFRYYLQGMGFGKIAQELNGQDVPGKPWGKERIKYILSNEKYI	-2.47
HMLNERQKKIIKILKDNKNWMTGKELSEFLNVSDRTIRSDIEYINRYNNALIESNVKNGYHLNFE	-0.233
HMLNIVTIFEEQFGRPLSPIELNIIKDWKESDYSDEMIVKALKEAVKSQVLNFRYVEGILNNWAKNG	-0.783
HMLNLNEAEKSIYVLIKKNESNNLNKVKEDSNLSNKAWDKGIKNLVKNNLVKVVKSNEGLFIQLV	-0.636
HMLNLNILTDKEKFIAKLISRGLSDSLIAKELYISISTVRSHVNSIYGKTNIKNRSHLASSFLYFELGNLL	-0.204
HMLNPMILLTKGGENIRLDKFLSSHLSDLSRTQIQKMVKEGLVLVNGEPSKVGLKLDGSETIQYTLPK	-0.18
HMLNSISIKTNKKIDFLEKNEHLVNFVYEKETMEHIYNLSYENKKDLQELQNKLSDIEGIIKINTDL	0.651
HMLPDVSITGHIFIRSGSRLNRIFVGESTYHVGDMLDGKWLIESINSDSLELRSGTQTTELPL	-2.83
HMLPDYLIELKKKADSGDAVSQNDIGNIYLYGLPRVNIYPDEKNIGIGIDYLYKAAWQDQVNAMTTI	-0.098
HMLPELQPGQTFSARIQQALPDNTYRALVAGKQLTLQLPEGAKAGDELELVVLDRSARVIIARQVD	-0.691
HMLPGERFKVKIAQAGKEKKQGIGYLNDGTMVVIENGIEKVGEEVEAVVIKVIQSSAGKIIFSEVAK	0.0862
HMLPGKEIPLPEFLREAFARNEPALENFQNLAPSYRRQYILWITSAKTPETVQKRISESIGLLKENRKLGM	-0.616
HMLPGLGPIERAQFMLQAIPGISPTRSAALIDKFGSIAGIAQASIKDIQTIEGIGKKTATTLYEVLNAG	-0.39
HMLPISGDDRDALDMAALILKQYDSLPILKEFANVVTKLQTVLDGVVSNSIEARRQMIQFEE	0.0649
HMLPITPGQKYKFVVKSAEEAAAIIRDKLGEMAQVISVRQVEGEGLARFLKSPKLEIIAQVPVA	-0.35
HMLPLGSNEYETAVIKHLASGVQDADEIQRLTGIDQTSLNTALTMLELAGTIRPLGNNHWTL	0.459
HMLPLHFIEIVSLKKIDTLTKRKELINYAFSKNEKTYIYKLAFKKKSELDNLYKEINLFNEIINIDIRHS	-0.577
HMLPLPRFASLDSSEANLRAGPGKDYPILWVYQRKGLPVEIIQEFDTWRRIRDRDGTVGWVQQNLL	-0.351
HMLPNIKSEMEILGDNAKARLEAAELWSKKYLSNEAYDTMSKLATTADGVKAIEEIMNITKS	0.0754
HMLPSELLAQQRIVVQPGHNLWRIARATYGRGARYTVIYQANREQIADPNRIFPGQVFALPAA	-0.102
HMLPSMENWLGELSFWQTPWWERRDFSTFDNIAQSKEELDEFMSRDDNGAILERMQDPINTIEAE	-0.285

Sequence	soluble fraction (log2)
HMLQGKVSFFNDEKGYGFIKDNNSKDSYFVHINKVEGEIAEGDKVTFELEKGPKGLVAANVKR	0.0967
HMLQIGDEEFIENIVKQVIDENQKAVDDYKKGKEKVMAFLIGQVMKKTKGKVNSEIVEKTIKKL	-0.211
HMLQKEVHQQIQQALRALPYHQRTAIVLYYYEGMSVKEIAQATGSMQGTVQSRLFFARKKLRPILESILKK	-1.15
HMLQQNRAVEAEQLARKGLSYAQSNIQQAALWRLVAEATEQQGKVDAALNAKNKAMQLEMAG	0.248
HMLRTLSTSEFAEAIGISESSARRLADSGDLRIRRTKGGHRKIPAEEAIRYAREIQATVVRPDLLGLST	-0.0139
HMLRVVSTRQAFDIVRGWADAHPQDPEHNKTLDELEELAKKEVWDDWSRTNEIAERLNALLVSIGANVRTA	-0.961
HMLSDEEKMAALNEQARQRGFTISPGVLPYLITHYQRDMHSLSMILDALDRYSLQTKRTITLPLLHDLLQQ	-1.04
HMLSKEFRFFTYLLESYAQHKNTTAGAVLKTLDEKGLTDFVYKMYDLYHVEAIENAYMDLDSLIATGKPA	-3.64
HMLSKGDRVSWDTPQGRTQGEVVEKKTKDFEHDGQKFTASDDDPAFIVKSEKSGAEAAHKGSALNK	-0.000228
HMLSLGIMEADMLKTGKHTISGISKATPEQRQKIDSDIEELKKKYPEKNITSKVENDNLIVESGVTAP	0.029
HMLSNKIEQLRKEKGYTFAKLSELSGISTGRLSDLATGKRNNPTMDTLIKLADALDVTLDELVGR	-0.26
HMLSNYIGMTLGEAKRNLGQGVNITVNGPNNDNAEVTGQDPTSGSSFDKSKDTITLTT	0.148
HMLSPAQSLLLRTAARRPDGRVIPPDTLRGGARVKVLTSLLQRGWIEPVDGGHVLTDAGYAAIG	-0.819
HMLSTNDYNENKNKLIKDFEIKFIIKHLKLNKGNVAATARSINFHPVSLRQKIAKLGIDVDEVMAG	-2.59
HMLSTQEYIKKNIENGSWKVGEKIPSENNLTEILGVSRASIRVAIQQFIALDVLNSIHGKGTFVKTNNIMG	0.112
HMLTALTDREEEILVLLAHNLSNKEIAKRLNLSVNTVRNHTSHIYEKLNVTSRRKAITLAQSLHLLPP	-1.48
HMLTAPMPGIVRQVNVDTGQKVRKGQPLMVLEAMKMEHQIIAPQAGKIEAIHYNEGDRVEMGSVLISIF	-1.17
HMLTAPMPGIVTEILVKEGQRVRSGQPLMILEAMKMEHQVTAPKSGQIEKIYFSEGEKVDMGSDLLSIS	0.5
HMLTEEVEISLMDMTKPTQPATIKTTATIQKGATTVMPKQIKMPEGYEFYGNYKMDQPFELTMTFVVKKI	-1.17
HMLTGESDNVEKSINKLGTENLALADQTNMGFKGTFINSGHGMAIVVKTGMQTELGKIASMIQIA	0.218
HMLTGISALKPTEAFPDEIFYEIFEIEDNIERTQYIESLRNTARQLKRVTEFNNLYKSFVLDYAQRQKQ	-1.93
HMLTKAEEQVMDYLWKLEKAFVKDILDEFPEPKPAYTTVSTMVRILEKKGMVGYTAYGKNHQYYPL	-1.97
